Data as given in IntAct's records for PubMed 24726729.

B1: CCHC-type zinc finger nucleic acid binding protein (Homo sapiens), P62633 (parent)
chain: MSSNECFKCGRSGHWARECPTGGGRGRGMRSRGRGGFTSDRGFQFVSSSLPDICYRCGESGHLAKDCDLQEDACYNCGRGGHIAKDCKEPKREREQCCYNCGKPGHLARDCDHADEQKCYSCGEFGHIQKDCTKVKCYRCGETGHVAINCSKTSEVNCYRCGESGHLARECTIEATA

Variants of: B1
Conditions: with anm1_rat Prmt1, Q63009
anm1_rat Prmt1, Q63009, sequence (Q63009 whole entry, looked up): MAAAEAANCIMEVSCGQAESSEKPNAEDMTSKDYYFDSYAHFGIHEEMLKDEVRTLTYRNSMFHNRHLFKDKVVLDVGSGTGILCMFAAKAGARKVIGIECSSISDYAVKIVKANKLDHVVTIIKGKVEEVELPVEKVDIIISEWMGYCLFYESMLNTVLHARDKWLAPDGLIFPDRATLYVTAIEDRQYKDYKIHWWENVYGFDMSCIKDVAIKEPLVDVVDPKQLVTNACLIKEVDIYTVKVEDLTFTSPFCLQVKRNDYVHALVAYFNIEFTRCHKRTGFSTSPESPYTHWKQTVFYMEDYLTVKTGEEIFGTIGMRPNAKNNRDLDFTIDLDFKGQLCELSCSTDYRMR

| effect of a mutation on the interaction | Variant |
| --- | --- |
| decreasing interaction | R25A;R27A |
